PMC4074165
Numbering of substitutions follows the chain as printed. Where two headings read alike, the source gives them in different places.

B1: P1-1-mut3 (hinge U to C) (ssRNA)
RNA: GGGGAAAAGGGUUUAAACAGUUUGAAAUAUUCCGCCCCCACCCCCGUAAUAGUUA
B2: P1-1-mut2 (E2 U to C) (ssRNA)
RNA: GGGGAAAAGGGUUUAAACAGUUUGAAAUAUUCUGUCUUCAUUUCUGCAACAGCCA
B3: P1-1-mut1 (E1 U to C) (ssRNA)
RNA: GGGGAAAAGGGUUUAAACAGCCCGAAACACCCUGUCUUCAUUUCUGUAAUAGUUA
B4: P1-1 (ssRNA)
RNA: B2 RNA with C47U, C50U, C53U, C54U
B5: P2-1 (ssRNA)
RNA: GGGCCUGUUUAGUUUUCAAGGAUGGAACUCCACCCUUUACUUGGUUUUAAGU
B6: P2-2 (ssRNA)
RNA: GGGAGUAUGUAUGGAAUGUUAUGAUAGGACAUAGUAAUAGUGGUCAGAUGUGGAAA
B7: P1-2 (ssRNA)
RNA: GGGAUAUCUGGCUGUCCUUUUUAUAAUGCAAAGUGAGAACUUUCCCUAC
B8: P2-3 (ssRNA)
RNA: GGGAAAUGGUAGGGAGACAAAUAUACAUGUGAAAUAAACUCAGUAUUUUAAUAAAGU
B9: P1-3 (ssRNA)
RNA: GGGUACUGUGUUUGAUAAAUGUUGUCCAGGUUCACUUGCCAAGAAUGUGUUGUCUAAAAUG

How the values were obtained:
Assay in all cases: EMSA
GST-HuR [1] = biological target: T1, GST-HuR (UniProt Q15717 1-326)
T1 sequence (Q15717 whole entry): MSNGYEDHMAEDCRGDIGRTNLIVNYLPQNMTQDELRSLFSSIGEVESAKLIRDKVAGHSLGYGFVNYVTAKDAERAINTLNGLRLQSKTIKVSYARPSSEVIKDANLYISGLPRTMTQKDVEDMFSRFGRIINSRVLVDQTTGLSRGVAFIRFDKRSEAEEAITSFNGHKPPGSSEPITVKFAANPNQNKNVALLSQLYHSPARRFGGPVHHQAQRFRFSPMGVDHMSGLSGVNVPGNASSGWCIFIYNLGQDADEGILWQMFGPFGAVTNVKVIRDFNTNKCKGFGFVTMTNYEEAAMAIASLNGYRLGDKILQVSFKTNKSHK

GST-HuR [2] = biological target: T1, GST-HuR; remark: listed apart in the source
GST-HuR [3] = biological target: T1, GST-HuR; remark: listed apart in the source
GST-HuR [4] = biological target: T1, GST-HuR; remark: listed apart in the source

| Binder | binding result (GST-HuR [4]) | further results |
| --- | --- | --- |
| B1 | – | binding result (GST-HuR [1]): binds |
| B2 | – | binding result (GST-HuR [2]): no binding |
| B3 | – | binding result (GST-HuR [3]): no binding |
| B4 | binds | – |
| B5 | no binding | – |
| B6 | no binding | – |
| B7 | no binding | – |
| B8 | no binding | – |
| B9 | no binding | – |
